Patent CN111793131A

Key:
[1] = target: PF4全抗原 (血小板因子4, platelet factor 4) (Homo sapiens (Human)) (UniProt P02776); experiment: chemiluminescent ELISA, antigen coated at 2ug/ml, 2ul antibody, HRP goat anti-mouse IgG, luminol (blank 3280)
[2] = target: PF4全抗原 (血小板因子4, platelet factor 4) (Homo sapiens (Human)) (UniProt P02776); experiment: chemiluminescent ELISA, antigen coated at 2ug/ml, 10ul antibody, HRP goat anti-mouse IgG, luminol (blank 3280)
[3] = target: PF4全抗原 (血小板因子4, platelet factor 4) (Homo sapiens (Human)) (UniProt P02776); experiment: chemiluminescent ELISA, antigen coated at 2ug/ml, 50ul antibody, HRP goat anti-mouse IgG, luminol (blank 3280)

Sequence of UniProt P02776 (P02776 32-101 limits assumed): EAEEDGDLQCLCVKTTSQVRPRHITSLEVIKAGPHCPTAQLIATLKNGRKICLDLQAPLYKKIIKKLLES

发光值 [1]: 63000 | 发光值 [2]: 256000 | 发光值 [3]: 994000
B1: 单克隆抗体AntiPF4_N (杂交瘤来源, 实施例1) (antibody, V domains shown)
VH: EVKLEESGGGLVQPGGSMKLSCVASGFTFSNYWMNWVRQSPEKGLEWVAEIRLKSNNYATHYAESVKGRFTISRDDSKSSVYLQMNNLRAEDTGIYYCTGYDFDYWGQGTTLTVSS
VL: DVVMTQTPLSLPVSLGDQASISCRSSQSLVHNYGNTFLHWYLQKPGQSPKLLIYSTSNLFSGVPDRFSGSGSGTDFTLKISRVEAEDLGVYFCSQSTHVPPTFGGGTKLEI
